Laboratory results from article PMC7554302, “The Reversible Non-covalent Aggregation Into Fibers of PGLa and Magainin 2 Preserves Their Antimicrobial Activity and Synergism” (Frontiers in Cellular and Infection Microbiology, 2020).
Where no end group is shown, it is not given here.

Molecular target: the molecule itself
Assay: transmission electron microscopy + FTIR; negative-stain TEM of the samples fibrillated in Mueller-Hinton medium; FTIR of fibril pellets prepared in 50 mM phosphate buffer pH 7.4

B1: magainin 2a (peptide)
peptide: GIGKFLHSAKKFGKAFVGEIMNS-NH2
notes: magainin 2, antimicrobial peptide of Xenopus laevis skin secretions, cut from the magainins precursor; Forms fibrils (many copies); source: synthetic peptide (solid-phase synthesis, Fmoc chemistry; reverse phase HPLC purified)
binding result: binds
